Source: patent publication US20120135912A1 (PERSEID THERAPEUTICS, published 2012)
Residue numbers refer to the chain shown, from its start. Numbers in names are those of the source. Where “and” joins values, the source holds several entries; their conditions need not be identical. Equal values may be shown once. Each block holds one binder with its values, some of them ahead of it.

What was measured:
[1] = target: human VLA4 (integrin alpha4beta1) on the surface of U937 cells (human, UniProt P13612 34-1032; P05556 21-798); assay: cell-based or functional assay
[2] = target: T1, human VLA4-Fc (alpha4-Fc/beta1-Fc heterodimer) (human); assay: SPR (BIACORE), VLA4-Fc captured by anti-human IgG, 1 mM MnCl2, 1:1 Langmuir
T1 construct: Soluble heterodimer from CHO cells, Protein A purified; also called VLA-Fc
Method: The kinetic 2D-VCAM-1 assay measures binding kinetics of a dimeric ligand (e.g., VLA-Fc fusion protein or LPAM-1-Fc fusion protein) coated to sensor chips and monomeric analyte (e.g., 2D-VCAM-1 variant polypeptides) in the mobile phase. Goat anti-human IgG antibody (Jackson ImmunoResearch, Catalog No. 105-005-098) was immobilized on CM-5 sensor chips (GE Healthcare, Catalog No. BR-1000-14) according to the manufacturer's protocol. Antibody was diluted to 30 μg/ml in immobilization buffer (10 mM sodium acetate, pH 5.0 (GE Healthcare, Catalog No. BR-1003-51)). […] Un-reacted sites were quenched with 35 μl of 1 M ethanolamine-HCl pH 8.5 (GE Healthcare, Catalog No. BR-1000-50). This procedure typically yielded 15,000 response units (RU) of coupled antibody. VLA4-Fc or LPAM-1-Fc, prepared as described in Examples 3 and 4, respectively, were bound to antibody-coated sensor chips by injection of 20 μl of ligand solution (20 μg/ml protein in HBS-P-Mn buffer at a flow rate of 10 μl/min). Ligand capture levels were typically 200-300 RU. 2D-VCAM-1 variant polypeptides were diluted in HBS-P-Mn and flowed over ligand-coated sensor chips for 2 min at 30 μl/min, followed by 5 min incubation with in HBS-P-Mn containing no protein at the same flow rate. For 2D-VCAM-1 variant polypeptides having very slow dissociation rates from VLA4-Fc or LPAM-1-Fc, kinetic assays were also conducted using longer dissociation times (e.g., 20 min). Rmax signal levels for 2D-VCAM-1 variant polypeptides ranged from approximately 5-25 RU. Regeneration between cycles was performed by 200 sec incubation with 10 mM glycine buffer (pH 1.7) at 50 μl/min. New chips were subjected to 4-5 cycles of capture/binding/regeneration prior to use in actual experiments. Data from a reference cell containing goat anti-human IgG capture antibody alone was subtracted from data obtained from flow cells containing captured VLA4-Fc or LPAM-1-Fc. Typically, 8 dilutions of 2D-VCAM-1 variant polypeptides ranging from 150 nM to 0.069 nM were analyzed against a blank reference (HBS-P-Mn buffer alone).

[3] = target: T2, human LPAM-1-Fc (alpha4-Fc/beta7-Fc heterodimer) (human); assay: ELISA, LPAM-1-Fc coated, 1 mM MnCl2; from EC50 values
T2 construct: Soluble heterodimer from CHO cells, Protein A purified
Method: The relative binding affinities of various 2D-VCAM variant proteins to immobilized LPAM-1-Fc (α4-Fc/β-7-Fc) heterodimer, relative to a control protein (e.g., Q38L-2D-VCAM-1 or human 2D-VCAM-1), were determined using a solid-phase ELISA assay. MAXISORP™ ELISA plates (NUNC) were coated overnight at 4° C. with 50 ul LPAM-1-Fc heterodimer (2 ug/ml in TBS-M, TBS (25 mM TRIS-HCl pH 7.5, 150 mM NaCl with 1 mM MnCl2), washed with TBS-T (TBS with 0.05% Tween-20), blocked with 200 ul 3% milk in TBS-M for 1 hr at room temperature, and washed again with TBS-T. A four-fold dilution series of the purified 2D-VCAM-1 variants to he assayed was made in COSTAR U-bottom plates in TBS-TMC (TBS with 0.05% Tween-20, 1 mM MnCl2 and 1% casein; Sigma) with a starting concentration of 8.2 uM (200 ug/ml). The dilution, series were transferred into the ELISA plate which was incubated at room temperature for 2 h and subsequently washed with TBS-T. Bound 2D-VCAM-1 protein was detected by incubation with 0.5 ug/ml of biotinylated anti-human VCAM antibody (R&D Systems, Catalog No. BAF809) in TBS-TMC for 1 h at room temperature followed by a TBS-T wash and subsequent incubation with 1:2000 dilution of streptavidin-HRP (BD Biosciences, Catalog No. 554066) in TBS-TMC for 30 min at room temperature. […] Typical development times ranged from 5-15 min and development was stopped by addition of 50 ul 2M H₂SO₄ (EM, Catalog No. SX1244-75). […] Fold-improvement in binding was calculated relative to a control protein (Q38L-2D-VCAM-1) assayed on the same plate.

[4] = target: T1, human VLA4-Fc (alpha4-Fc/beta1-Fc …); assay: SPR (BIACORE), retest with new polypeptide preparations and new VLA4-Fc; retested with new polypeptide preparations and new VLA-Fc ligand (Table 5B)
Method: The kinetic 2D-VCAM-1 assay measures binding kinetics of a dimeric ligand (e.g., VLA-Fc fusion protein or LPAM-1-Fc fusion protein) coated to sensor chips and monomeric analyte (e.g., 2D-VCAM-1 variant polypeptides) in the mobile phase. Goat anti-human IgG antibody (Jackson ImmunoResearch, Catalog No. 105-005-098) was immobilized on CM-5 sensor chips (GE Healthcare, Catalog No. BR-1000-14) according to the manufacturer's protocol. Antibody was diluted to 30 μg/ml in immobilization buffer (10 mM sodium acetate, pH 5.0 (GE Healthcare, Catalog No. BR-1003-51)). […] Un-reacted sites were quenched with 35 μl of 1 M ethanolamine-HCl pH 8.5 (GE Healthcare, Catalog No. BR-1000-50). This procedure typically yielded 15,000 response units (RU) of coupled antibody. VLA4-Fc or LPAM-1-Fc, prepared as described in Examples 3 and 4, respectively, were bound to antibody-coated sensor chips by injection of 20 μl of ligand solution (20 μg/ml protein in HBS-P-Mn buffer at a flow rate of 10 μl/min). Ligand capture levels were typically 200-300 RU. […] Typically, 8 dilutions of 2D-VCAM-1 variant polypeptides ranging from 150 nM to 0.069 nM were analyzed against a blank reference (HBS-P-Mn buffer alone).

Chain of human VLA4 (integrin alpha4beta1) on the surface of U937 cells (P13612 34-1032, chain 1 of 2): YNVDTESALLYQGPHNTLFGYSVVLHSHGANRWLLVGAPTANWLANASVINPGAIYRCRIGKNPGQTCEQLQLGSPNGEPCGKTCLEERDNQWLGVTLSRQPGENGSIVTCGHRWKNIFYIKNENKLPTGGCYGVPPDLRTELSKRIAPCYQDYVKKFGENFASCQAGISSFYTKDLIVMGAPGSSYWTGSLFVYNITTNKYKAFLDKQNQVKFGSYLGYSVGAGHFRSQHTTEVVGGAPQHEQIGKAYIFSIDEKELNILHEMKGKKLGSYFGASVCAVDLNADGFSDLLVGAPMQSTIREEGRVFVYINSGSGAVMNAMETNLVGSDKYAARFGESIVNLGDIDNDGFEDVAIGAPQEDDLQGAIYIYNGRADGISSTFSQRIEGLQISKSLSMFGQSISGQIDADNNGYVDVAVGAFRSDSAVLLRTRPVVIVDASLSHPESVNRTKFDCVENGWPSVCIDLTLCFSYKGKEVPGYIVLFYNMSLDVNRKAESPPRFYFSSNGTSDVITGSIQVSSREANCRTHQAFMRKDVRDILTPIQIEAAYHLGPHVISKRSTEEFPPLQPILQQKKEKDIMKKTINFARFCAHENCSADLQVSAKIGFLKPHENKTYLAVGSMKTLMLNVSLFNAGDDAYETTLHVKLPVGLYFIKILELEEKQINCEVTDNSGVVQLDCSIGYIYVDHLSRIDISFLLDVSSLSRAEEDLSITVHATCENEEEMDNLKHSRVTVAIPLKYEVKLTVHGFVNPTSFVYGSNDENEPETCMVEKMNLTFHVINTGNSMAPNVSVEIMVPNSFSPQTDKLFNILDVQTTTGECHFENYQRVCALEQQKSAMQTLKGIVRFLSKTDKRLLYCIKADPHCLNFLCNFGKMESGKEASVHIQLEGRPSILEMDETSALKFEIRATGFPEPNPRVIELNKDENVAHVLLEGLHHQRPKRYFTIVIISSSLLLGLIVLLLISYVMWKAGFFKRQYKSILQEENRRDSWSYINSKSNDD
Chain of human VLA4 (integrin alpha4beta1) on the surface of U937 cells (P05556 21-798, chain 2 of 2): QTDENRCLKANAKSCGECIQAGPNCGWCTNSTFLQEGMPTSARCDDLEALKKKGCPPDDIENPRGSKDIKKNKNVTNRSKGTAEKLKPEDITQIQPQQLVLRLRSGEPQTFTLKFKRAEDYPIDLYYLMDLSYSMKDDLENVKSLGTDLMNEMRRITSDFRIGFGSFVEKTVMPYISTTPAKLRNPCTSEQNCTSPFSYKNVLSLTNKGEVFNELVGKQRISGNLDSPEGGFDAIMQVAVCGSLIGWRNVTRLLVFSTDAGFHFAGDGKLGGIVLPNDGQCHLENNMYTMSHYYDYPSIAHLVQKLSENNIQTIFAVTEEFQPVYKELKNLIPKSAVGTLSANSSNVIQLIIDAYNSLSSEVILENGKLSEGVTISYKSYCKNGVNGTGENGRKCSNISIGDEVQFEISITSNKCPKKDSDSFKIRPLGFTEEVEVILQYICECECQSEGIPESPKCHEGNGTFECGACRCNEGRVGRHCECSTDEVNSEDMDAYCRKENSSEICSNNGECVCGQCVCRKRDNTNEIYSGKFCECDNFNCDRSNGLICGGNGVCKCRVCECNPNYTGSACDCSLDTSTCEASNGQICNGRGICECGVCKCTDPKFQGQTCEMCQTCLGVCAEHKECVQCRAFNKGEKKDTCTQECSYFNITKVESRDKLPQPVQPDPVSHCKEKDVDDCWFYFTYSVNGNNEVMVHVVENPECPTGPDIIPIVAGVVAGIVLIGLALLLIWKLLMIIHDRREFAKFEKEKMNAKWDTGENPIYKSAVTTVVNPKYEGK
T1 sequence (chain, as listed by the source limits assumed, form in doubt, chain 1 of 2): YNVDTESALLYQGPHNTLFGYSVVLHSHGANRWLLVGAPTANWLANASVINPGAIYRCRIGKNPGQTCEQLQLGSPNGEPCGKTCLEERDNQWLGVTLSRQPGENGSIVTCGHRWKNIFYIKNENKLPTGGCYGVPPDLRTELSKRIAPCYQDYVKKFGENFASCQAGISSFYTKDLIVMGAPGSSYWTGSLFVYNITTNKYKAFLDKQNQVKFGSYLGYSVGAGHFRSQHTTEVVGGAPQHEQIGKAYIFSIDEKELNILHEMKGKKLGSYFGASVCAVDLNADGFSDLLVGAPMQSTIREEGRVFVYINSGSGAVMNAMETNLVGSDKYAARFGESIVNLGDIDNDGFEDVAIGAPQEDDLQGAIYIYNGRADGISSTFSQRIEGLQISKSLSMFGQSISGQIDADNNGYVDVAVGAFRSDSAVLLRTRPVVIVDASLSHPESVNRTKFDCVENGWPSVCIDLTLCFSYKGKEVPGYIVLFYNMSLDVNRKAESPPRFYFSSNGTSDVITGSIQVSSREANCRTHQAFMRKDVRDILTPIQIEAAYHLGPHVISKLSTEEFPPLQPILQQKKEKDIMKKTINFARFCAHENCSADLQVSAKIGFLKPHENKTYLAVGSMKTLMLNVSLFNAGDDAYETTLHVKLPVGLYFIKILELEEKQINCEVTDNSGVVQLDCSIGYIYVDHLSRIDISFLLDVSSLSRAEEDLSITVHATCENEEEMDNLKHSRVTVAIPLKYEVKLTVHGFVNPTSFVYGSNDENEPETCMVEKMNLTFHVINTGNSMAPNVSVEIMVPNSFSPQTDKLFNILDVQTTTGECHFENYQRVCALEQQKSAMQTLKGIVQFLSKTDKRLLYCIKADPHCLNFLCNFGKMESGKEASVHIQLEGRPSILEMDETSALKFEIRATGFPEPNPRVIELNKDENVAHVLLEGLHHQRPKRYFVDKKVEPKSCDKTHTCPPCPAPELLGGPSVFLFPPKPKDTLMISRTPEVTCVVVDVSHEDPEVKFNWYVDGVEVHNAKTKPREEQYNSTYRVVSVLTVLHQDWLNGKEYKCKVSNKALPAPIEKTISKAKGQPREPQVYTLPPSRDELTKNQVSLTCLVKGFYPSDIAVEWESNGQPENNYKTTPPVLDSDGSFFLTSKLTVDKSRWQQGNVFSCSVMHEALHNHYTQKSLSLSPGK
T1 sequence (chain, as listed by the source limits assumed, form in doubt, chain 2 of 2): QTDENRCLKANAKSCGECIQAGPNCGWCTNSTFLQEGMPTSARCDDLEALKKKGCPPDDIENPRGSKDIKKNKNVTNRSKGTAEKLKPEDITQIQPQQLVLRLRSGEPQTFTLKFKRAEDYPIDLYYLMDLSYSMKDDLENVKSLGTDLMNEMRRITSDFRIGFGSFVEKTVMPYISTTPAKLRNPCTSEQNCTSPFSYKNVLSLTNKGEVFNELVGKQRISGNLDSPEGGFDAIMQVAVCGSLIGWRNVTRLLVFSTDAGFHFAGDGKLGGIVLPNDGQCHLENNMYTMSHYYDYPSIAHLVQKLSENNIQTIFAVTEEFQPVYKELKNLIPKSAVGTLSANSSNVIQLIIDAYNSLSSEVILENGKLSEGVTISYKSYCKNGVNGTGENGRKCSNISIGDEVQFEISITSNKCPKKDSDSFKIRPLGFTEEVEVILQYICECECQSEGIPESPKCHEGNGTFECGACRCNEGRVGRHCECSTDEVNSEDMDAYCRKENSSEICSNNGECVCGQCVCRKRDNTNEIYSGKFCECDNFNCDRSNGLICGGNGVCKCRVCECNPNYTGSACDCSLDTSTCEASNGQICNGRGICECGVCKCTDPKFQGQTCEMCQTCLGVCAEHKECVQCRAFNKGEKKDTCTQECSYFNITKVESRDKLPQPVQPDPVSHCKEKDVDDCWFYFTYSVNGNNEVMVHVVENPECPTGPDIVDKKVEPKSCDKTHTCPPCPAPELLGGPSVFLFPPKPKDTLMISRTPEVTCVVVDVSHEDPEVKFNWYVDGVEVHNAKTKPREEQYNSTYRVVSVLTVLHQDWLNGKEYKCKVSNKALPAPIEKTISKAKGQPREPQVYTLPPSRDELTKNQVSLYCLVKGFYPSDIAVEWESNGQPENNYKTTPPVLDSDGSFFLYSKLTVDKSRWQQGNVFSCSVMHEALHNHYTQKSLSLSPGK
T2 sequence (chain, as listed by the source limits assumed, chain 1 of 2): as the sequence (chain, as listed by the source limits assumed, form in doubt, chain 1 of 2) above
T2 sequence (chain, as listed by the source limits assumed, chain 2 of 2): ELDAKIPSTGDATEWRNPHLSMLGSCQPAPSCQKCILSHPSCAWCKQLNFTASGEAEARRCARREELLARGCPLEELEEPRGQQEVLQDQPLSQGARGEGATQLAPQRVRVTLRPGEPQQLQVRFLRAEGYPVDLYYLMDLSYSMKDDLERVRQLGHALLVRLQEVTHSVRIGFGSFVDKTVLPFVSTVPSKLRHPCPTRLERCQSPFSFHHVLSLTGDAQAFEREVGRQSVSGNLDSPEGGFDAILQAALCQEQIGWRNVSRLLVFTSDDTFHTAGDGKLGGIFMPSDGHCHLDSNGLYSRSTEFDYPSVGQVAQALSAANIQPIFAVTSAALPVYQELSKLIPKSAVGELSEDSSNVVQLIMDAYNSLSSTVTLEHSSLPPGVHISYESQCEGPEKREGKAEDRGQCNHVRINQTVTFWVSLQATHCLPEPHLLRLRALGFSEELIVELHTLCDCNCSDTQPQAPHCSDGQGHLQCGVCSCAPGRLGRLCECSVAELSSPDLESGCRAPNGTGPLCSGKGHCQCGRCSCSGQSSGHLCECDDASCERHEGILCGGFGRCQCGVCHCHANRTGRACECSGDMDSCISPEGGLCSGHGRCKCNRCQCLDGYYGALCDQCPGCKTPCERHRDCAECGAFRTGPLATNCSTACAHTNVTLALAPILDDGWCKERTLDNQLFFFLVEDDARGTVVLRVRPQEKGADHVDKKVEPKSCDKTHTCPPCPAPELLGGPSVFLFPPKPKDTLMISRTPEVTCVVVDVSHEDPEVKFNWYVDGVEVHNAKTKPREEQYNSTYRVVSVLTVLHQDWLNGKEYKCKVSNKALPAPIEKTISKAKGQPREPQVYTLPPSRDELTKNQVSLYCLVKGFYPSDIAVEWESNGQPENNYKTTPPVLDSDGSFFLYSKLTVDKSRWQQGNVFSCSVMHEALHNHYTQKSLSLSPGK

- IC50 of inhibition of U937 cell adhesion to immobilized 7D-VCAM-1 [1]: 6.4 nM and 0.16 mg/ml
- Kd [2]: 0.123 nM
- binding affinity for VLA4-Fc relative to human 2D-VCAM-1 [2]: 124 fold
- fold improvement in binding relative to Q38L-2D-VCAM-1 [3]: 1 fold
B1: 2D-VCAM-1 variant Clone 46 (ligand)
chain: FKIETTPESRYLAQIGDSVSLTCSTTGCESPFFSWRPQLDAPLNGKVTNEGTTSTLTMNPVSFGNEHSYLCTATCESRKLEKGIQVEIYSFPKDPEIHLSGPLEAGKPITVKCSVADVYPFDRLEIDLLKGDHLMKSQEFLEDADRKSLETKSLEVTFTPVIEDIGKVLVCRAKLHIDEMDSVPTVRQAVKELQVYISP
notes: also called Clone 046; not shown: His tag

- Kd [2]: 0.0501 nM
- binding affinity for VLA4-Fc relative to human 2D-VCAM-1 [2]: 303 fold
- fold improvement in binding relative to Q38L-2D-VCAM-1 [3]: 80 fold
B2: 2D-VCAM-1 variant Clone 59 (ligand)
chain: B1 chain with Q38L, A41S, L141F, D145A, R146W
notes: also called Clone 059; not shown: His tag

- Kd [2]: 0.148 nM
- binding affinity for VLA4-Fc relative to human 2D-VCAM-1 [2]: 103 fold
- fold improvement in binding relative to Q38L-2D-VCAM-1 [3]: 17 fold
B3: 2D-VCAM-1 variant Clone 47 (ligand)
chain: B1 chain with Q38L, A41S
notes: also called Clone 047; not shown: His tag

- IC50 of inhibition of U937 cell adhesion to immobilized 7D-VCAM-1 [1]: 0.8 nM and 0.02 mg/ml
- fold improvement in binding relative to Q38L-2D-VCAM-1 [3]: 74 fold
- Kd [4]: 0.018 nM
B4: 2D-VCAM-1 variant Clone 146 (ligand, not shown: small tags and cut ends)
chain: B1 chain with F32L, S34F, Q38L, A41S, T74R, K79S

- Kd [2]: 1.87 nM
- binding affinity for VLA4-Fc relative to human 2D-VCAM-1 [2]: 8 fold
- fold improvement in binding relative to Q38L-2D-VCAM-1 [3]: 1 fold
B5: Q38L-2D-VCAM-1 (ligand)
chain: B1 chain with P37T, Q38L, L39I, A41S
notes: also called Q38L 2D-VCAM-1 polypeptide; not shown: His tag
